Data from patent US20240084003A1 (SIMCERE ZAIMING PHARMACEUTICAL, published 2024).

T1: human CD22-ECD-His protein (human, UniProt P20273 20-687)
T1 construct: Recombinant, from HEK293E cells; also called hCD22-ECD-His; human CD22-His protein; not shown: His tag
T1 sequence: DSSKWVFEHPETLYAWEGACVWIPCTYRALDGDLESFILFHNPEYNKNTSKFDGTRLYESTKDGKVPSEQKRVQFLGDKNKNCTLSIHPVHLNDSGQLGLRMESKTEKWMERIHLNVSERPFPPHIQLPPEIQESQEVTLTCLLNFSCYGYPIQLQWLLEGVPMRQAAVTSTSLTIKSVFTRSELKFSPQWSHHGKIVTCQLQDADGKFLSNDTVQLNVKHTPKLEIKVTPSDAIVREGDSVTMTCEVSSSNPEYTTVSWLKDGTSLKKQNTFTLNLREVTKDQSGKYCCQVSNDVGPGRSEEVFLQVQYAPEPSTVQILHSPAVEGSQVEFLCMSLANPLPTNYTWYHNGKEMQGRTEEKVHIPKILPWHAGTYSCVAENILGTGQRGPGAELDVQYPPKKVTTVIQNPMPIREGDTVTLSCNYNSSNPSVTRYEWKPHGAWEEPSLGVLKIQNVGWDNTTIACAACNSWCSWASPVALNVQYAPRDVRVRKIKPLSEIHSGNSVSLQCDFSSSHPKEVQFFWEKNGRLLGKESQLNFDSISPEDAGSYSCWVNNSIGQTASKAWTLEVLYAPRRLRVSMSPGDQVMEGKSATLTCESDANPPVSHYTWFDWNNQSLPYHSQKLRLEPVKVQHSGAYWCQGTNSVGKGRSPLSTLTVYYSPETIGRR

T2: human CD22 domain5-7-His (human, UniProt P20273 414-687)
T2 construct: also called hCD22 domain5-7-His; not shown: His tag
T2 sequence: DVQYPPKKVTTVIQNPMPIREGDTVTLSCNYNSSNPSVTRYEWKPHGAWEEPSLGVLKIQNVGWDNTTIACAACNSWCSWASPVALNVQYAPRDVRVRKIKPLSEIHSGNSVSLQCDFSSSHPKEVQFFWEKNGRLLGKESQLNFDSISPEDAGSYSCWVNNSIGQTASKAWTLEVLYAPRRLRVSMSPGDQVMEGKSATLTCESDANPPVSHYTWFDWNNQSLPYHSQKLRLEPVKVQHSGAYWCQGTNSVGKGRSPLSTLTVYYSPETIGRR


How the values were obtained:
[1] = molecular target: T1, human CD22-ECD-His protein; assay: SPR (Biacore), antibody captured on Protein A chip, CD22-ECD-His in solution
Procedure: Sample buffer and running buffer were HBS-EP+(10 mM HEPES, 150 mM NaCl, 3 mM EDTA, 0.05% surfactant P20) (GE Healthcare; BR-1006-69). The flow-through cell was set to 25° C. The sample block was set to 16° C. Both were pretreated with the running buffer. In each cycle, the antibody to be tested was first captured with a Protein A chip, then a single concentration of CD22 antigen protein was injected. The binding and dissociation process of the antibody and the antigen protein was recorded, and finally Glycine pH 1.5 (GE Healthcare; BR-1003-54) was used to complete chip regeneration. Binding was measured by injecting different concentrations of recombinant human CD22-ECD His protein in solution for 240 s with a flow rate of 30 μL/min. The concentration started from 200 nM (see the detailed results for the actual concentration in the test) and was diluted at 1:1, making a total of 5 concentrations. The dissociation phase was monitored for up to 600 s and was triggered by switching from sample solution to running buffer. The surface was regenerated by washing with a 10 mM of glycine solution (pH 1.5) for 30 s at a flow rate of 30 μL/min. Bulk refractive index difference was corrected by subtracting the response obtained from the goat anti-human Fc surface. Blank injection was also subtracted (=double reference). For calculation of apparent KD and other kinetic parameters, Langmuir 1:1 model was used.

human CD22 domain5-7-His = molecular target: T2, human CD22 domain5-7-His; assay: ELISA, plate coated with human CD22 domain5-7-His

| Binder | Kd [1] [nM] | koff [1] [s⁻¹] | kon [1] [M⁻¹ s⁻¹] | binding result (human CD22 domain5-7-His) |
| --- | --- | --- | --- | --- |
| F1.257.3 (antibody, human IgG1, kappa, V domains shown, Chimeric IgG1 kappa) VH: QVQLQQSGPELARPGASVKLSCKASGYTFTSYGISWVKQRTGQDLEWIGEIYPKLGTTYYNEKFKDKATLTTDRSSSTAYMALRSLTSEDSAVYFCACPHYYATRGGDYWGQGTTLTVSS VL: EIVLTQSPATLSVTPGDSVTFSCRASQSISNHLHWYQQKSHESPRLLIRYASQSISGIPSRFSGSGSGTDFTLSLSSVETEDFGVYFCQQSHSWPYTFGGGTKLEIAR | 0.417 | 0.000113 | 270000 | no binding |
| F1.245.2 (antibody, human IgG1, kappa, V domains shown, Chimeric IgG1 kappa) VH: EVQLQQSGAELVKPGASVKLSCTGSGFNIKDYYIHWVKQRTEQGLEWMGRIDPEDGETEYAPKFQDEATITSDTSSNTAYLQLSSLTYEDTAVYYCAREAAGYFYRGSSYGYFDVWGTGTTVTVSS VL: DFQMTQTTSFLSASLGDRVTISCSASQDISNYLNWYQQKPDGTVKLLIYYTSSLHSGVPSRFSGSGSGTDYSLTISNLEPEDIATYYCQQYSMLPYTFGGGTKLEMER | 0.458 | 0.00119 | 2.6e+06 | no binding |
| F1.161.7 (antibody, human IgG1, kappa, V domains shown, Chimeric IgG1 kappa) VH: QVQLQQPGAELVKPGASVKMSCKASGYTFTSYWISWVKQRPGQGLEWIGDIYPGTGSSNYNEKFKSKATLTVDTSSSTAYMQLSSLTSEDSAVYYCARLKFEGIGYWGQGTTLTVSS VL: QIVLTQSPAIMSASLGEEITLTCSASSSVSYMHWFQQKSGTSPKLLIYSISNLASGVPSRFSGSGSGTFYSLTISSVEAEDAADYYCHQWSSYPWTFGGGTKLEIKR | 5.88 | 0.00118 | 201000 | no binding |
| F1.280.1 (antibody, human IgG1, kappa, V domains shown, Chimeric IgG1 kappa) VH: QIQLVQSGPELKKPGETVKISCKASGYTFTTYGMSWVKQTPGKGLTWMGWINTDSGVPTYADDFKRRFAFSLEASATTAYLQINNLKNEDTATYFCARGGPDYWGQGTTLTVSS VL: DILLTQSPATLSVTPGETVSLSCRASQSIYKNLHWYHQKSHRSPRLLIKYASDSISGIPSRFTGSGSGTNFTLSINSVKPEDEGIYYCLQGYIVPLTFGAGTKLELKR | 6.73 | 0.000423 | 62900 | no binding |
| F1.7.6 (antibody, human IgG1, kappa, V domains shown, Chimeric IgG1 kappa) VH: EIQLQQSGPELVKPGTSVKVSCKASGYDFTRYNMYWVKQSHGKSLEWIGYIDPYNGDTRYNQKFKGKATLTVDKSSSTAYMHLNSLTSEDSAVYYCEAIYYDMEGYALDYWGQGTSVTVSS VL: DIVMSQSPSSLAVSVGEKVTMSCKSSQSLLYSNNQKNYLAWYQQKPGQSPKKLIYWASTRESGVPDRLTGSGSGTDFTLTISSVTAEDLAVYYCQQFYSYPWTFGGGTKLEIKR | 1.7 | 0.000203 | 120000 | no binding |
| F1.62.10 (antibody, human IgG1, kappa, V domains shown, Chimeric IgG1 kappa) VH: QVQLQQSGPELVKPGASVKISCKASGYEFSSIWMNWVKQRPGEGLEWIGRIFPGDGEINYNEKFKGKATLTADRSSTTAYMQLSSLTSEDSAVYFCAGWRIYYGTYGAMDYWGQGTSVTVSS VL: DIQMTQITSSLSASLGDRVTISCRASQDIGNYLNWYQQKPDGTVKLLIYYTSRLHSGVPSRFSGSGSRTDYSLTISNLQQEDIATYFCQQGNTLPWTFGGGTKLEIKR | 29.3 | 0.000399 | 13600 | no binding |
| F1.231.15 (antibody, IgG1, V domains shown, Chimeric IgG1 kappa) VH: QVQLQQPGAELVKPGASVKLSCKTSGYTFTIYWMQWVKQRPGRGLEWIGRIDPHSGDTHYNENFTTKVTLTVDETSNTAYMHLSGLTSEDSAVYYCARRDYSYYVLDYWGQGTSVTVSS VL: DVVLTQTPLSLPVSLGDQASISCRSSQSLVHINGDTYLHWYLQKPGQSPKLLIYTVFNRFSGVPDRFSGSGSGTDFTLKISRVEAEDLGAYFCSQSTHVPYTFGGGTKLEIKR | 44.8 | – | – | no binding |
